How the values were obtained:
Test in all cases: co-IP; substrate (Hmg2-GFP, Ste6*-GFP, CPY*-GFP with GFP-Trap; Pdr5*-Myc with Myc Trap) precipitated from yeast microsomes solubilised in Tween IP buffer (500 mM NaCl, 50 mM Tris pH 7.5, 10 mM EDTA, 1.5% Tween-20), overnight 4°C; blots with anti-HA, anti-Cdc48
Hmg2-GFP (S. cerevisiae) = Hmg2-GFP (S. cerevisiae) (UniProt P12684)
[1] = molecular target: Pdr5*-Myc (S. cerevisiae) (UniProt P33302)
[2] = molecular target: Ste6*-GFP (S. cerevisiae) (UniProt P12866)

Measured: fraction of Dfm1-5Ashp bound compared with wild-type Dfm1

Chain of Dfm1-5Ashp (Q12743 whole entry): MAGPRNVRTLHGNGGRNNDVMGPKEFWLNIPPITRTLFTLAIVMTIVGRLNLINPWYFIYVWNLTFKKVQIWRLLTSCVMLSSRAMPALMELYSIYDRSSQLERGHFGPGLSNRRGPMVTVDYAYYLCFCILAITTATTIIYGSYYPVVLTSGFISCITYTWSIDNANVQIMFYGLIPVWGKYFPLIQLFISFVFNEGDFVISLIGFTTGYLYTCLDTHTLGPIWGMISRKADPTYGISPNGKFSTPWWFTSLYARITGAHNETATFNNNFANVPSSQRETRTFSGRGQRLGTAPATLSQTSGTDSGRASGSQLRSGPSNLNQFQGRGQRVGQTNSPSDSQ
Chain of UniProt P12866 (P12866 whole entry): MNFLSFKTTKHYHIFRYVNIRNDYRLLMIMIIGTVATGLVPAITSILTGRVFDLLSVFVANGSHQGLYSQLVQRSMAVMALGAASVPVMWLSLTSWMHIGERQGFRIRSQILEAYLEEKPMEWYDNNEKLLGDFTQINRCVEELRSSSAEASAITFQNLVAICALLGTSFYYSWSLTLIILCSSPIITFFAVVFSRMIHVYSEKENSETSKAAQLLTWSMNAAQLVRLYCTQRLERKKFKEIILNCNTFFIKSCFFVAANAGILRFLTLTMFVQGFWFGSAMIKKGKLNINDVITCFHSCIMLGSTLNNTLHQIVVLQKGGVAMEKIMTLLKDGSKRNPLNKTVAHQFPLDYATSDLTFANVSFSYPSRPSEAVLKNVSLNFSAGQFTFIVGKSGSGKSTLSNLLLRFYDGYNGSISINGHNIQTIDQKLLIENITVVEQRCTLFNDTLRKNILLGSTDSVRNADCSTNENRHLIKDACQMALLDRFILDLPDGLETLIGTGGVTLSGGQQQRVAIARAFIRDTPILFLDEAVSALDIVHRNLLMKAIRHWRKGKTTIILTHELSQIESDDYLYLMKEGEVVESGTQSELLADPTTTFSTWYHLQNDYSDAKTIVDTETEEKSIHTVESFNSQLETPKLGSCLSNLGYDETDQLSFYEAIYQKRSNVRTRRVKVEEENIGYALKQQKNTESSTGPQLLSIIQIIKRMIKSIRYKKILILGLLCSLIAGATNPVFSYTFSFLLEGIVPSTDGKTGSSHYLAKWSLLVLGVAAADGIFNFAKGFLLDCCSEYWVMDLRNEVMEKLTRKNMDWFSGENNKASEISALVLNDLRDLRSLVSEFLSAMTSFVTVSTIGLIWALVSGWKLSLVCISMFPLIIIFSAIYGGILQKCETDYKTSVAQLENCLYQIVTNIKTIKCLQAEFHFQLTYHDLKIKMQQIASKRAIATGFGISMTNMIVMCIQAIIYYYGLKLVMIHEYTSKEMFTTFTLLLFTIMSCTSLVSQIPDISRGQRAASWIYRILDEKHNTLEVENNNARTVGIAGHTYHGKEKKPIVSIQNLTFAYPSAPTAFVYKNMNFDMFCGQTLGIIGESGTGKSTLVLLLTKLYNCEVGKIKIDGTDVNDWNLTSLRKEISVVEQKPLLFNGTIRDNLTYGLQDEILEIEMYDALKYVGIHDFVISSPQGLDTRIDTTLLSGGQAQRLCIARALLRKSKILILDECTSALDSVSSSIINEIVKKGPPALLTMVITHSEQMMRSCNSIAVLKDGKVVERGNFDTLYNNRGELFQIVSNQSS
Chain of UniProt P33302 (P33302 whole entry): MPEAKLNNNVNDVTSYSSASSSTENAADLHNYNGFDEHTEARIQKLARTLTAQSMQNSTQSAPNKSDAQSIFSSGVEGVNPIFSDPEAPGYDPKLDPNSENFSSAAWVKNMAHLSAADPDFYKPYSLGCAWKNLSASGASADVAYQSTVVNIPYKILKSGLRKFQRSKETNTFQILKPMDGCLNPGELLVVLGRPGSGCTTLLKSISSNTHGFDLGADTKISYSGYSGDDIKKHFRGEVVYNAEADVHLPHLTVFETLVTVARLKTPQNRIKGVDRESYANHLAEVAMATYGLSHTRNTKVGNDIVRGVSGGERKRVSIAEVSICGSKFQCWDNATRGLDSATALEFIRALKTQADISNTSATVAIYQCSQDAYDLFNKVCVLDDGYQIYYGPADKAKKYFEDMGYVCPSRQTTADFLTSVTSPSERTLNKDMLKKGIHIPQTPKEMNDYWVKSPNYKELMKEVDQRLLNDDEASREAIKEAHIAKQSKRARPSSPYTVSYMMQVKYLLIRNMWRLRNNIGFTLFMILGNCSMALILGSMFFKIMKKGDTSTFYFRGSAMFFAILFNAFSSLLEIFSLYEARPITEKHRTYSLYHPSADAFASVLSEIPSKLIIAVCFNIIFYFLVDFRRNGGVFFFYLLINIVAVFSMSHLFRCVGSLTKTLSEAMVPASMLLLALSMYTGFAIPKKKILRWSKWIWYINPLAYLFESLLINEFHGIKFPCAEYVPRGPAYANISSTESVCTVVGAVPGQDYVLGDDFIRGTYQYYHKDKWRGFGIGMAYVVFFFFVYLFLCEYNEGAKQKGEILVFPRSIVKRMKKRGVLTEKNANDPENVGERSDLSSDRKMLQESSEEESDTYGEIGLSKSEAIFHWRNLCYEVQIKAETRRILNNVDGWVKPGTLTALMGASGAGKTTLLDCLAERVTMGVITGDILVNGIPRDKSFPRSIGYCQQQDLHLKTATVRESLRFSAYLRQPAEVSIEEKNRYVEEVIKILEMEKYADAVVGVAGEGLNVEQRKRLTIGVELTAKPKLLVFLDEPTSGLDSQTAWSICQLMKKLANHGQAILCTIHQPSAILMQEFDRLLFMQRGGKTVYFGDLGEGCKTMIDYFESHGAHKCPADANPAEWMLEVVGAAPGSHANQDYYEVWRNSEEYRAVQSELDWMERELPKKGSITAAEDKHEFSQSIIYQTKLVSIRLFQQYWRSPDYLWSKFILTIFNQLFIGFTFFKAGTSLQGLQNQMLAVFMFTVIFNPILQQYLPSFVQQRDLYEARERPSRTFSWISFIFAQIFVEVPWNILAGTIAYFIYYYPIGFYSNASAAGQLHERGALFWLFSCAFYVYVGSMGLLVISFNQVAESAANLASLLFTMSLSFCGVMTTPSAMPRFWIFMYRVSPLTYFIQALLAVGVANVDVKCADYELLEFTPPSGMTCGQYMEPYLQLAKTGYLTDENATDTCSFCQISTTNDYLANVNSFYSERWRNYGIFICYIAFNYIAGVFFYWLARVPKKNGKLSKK
Chain of UniProt P12684 (P12684 whole entry): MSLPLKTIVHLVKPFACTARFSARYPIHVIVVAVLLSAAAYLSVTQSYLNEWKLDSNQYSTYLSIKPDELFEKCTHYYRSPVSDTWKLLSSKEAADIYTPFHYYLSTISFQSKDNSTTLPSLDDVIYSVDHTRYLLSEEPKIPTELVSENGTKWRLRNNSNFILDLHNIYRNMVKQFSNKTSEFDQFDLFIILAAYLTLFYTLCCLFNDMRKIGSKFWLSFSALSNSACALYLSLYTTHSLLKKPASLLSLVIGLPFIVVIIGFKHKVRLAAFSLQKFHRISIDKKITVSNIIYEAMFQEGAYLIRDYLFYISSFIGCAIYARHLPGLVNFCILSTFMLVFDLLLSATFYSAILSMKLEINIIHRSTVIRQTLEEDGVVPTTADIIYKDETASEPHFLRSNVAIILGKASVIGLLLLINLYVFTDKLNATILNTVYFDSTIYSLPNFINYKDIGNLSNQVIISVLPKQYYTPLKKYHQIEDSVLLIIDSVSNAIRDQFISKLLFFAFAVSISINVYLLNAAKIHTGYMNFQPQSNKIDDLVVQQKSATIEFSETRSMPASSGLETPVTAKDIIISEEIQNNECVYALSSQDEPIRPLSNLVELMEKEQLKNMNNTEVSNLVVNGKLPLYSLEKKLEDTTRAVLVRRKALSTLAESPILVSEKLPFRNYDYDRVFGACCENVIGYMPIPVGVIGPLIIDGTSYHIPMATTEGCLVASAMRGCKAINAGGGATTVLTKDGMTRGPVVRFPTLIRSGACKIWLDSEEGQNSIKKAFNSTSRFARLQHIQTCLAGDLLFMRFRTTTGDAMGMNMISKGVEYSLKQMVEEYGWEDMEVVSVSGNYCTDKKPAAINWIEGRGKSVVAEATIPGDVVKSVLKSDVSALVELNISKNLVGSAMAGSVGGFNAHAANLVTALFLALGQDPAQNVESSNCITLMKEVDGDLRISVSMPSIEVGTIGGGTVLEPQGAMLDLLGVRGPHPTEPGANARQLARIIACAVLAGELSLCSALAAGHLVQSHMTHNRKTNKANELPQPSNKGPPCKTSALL

Dfm1-5Ashp (from UniProt Q12743 1-341) (natural protein)
< 5%: all assays above

Reference: publication PMC8641752
